Reference: US20190233542A1

Tests used:
[1] = target: human PCSK9-mFc-biotin (human) (UniProt Q8NBP7); test: competitive ELISA, blocking of PCSK9 binding to LDL-R
[2] = target: human PCSK9 (Proprotein Convertase Subtilisin/Kexin type 9) (human) (UniProt Q8NBP7); test: cell-based or functional assay
[3] = target: human PCSK9 (Proprotein Convertase Subtilisin/Kexin type 9) (human) (UniProt Q8NBP7); test: binding ELISA on human PCSK9

IC50 [1]: 2.21 nM | IC50, LDL-uptake assay in HepG2 [2]: 77.6 nM | EC50 [3]: 0.044 nM
Substance: Repatha (antibody)
